In paper PMC8191756:

Legend:
UBC9 = UBC9 (UniProt P63279); experiment: co-IP, Strep-ALKBH5 with Flag-UBC9; conditions: reference: wild type
SENP1 = SENP1 (UniProt Q9P0U3); experiment: co-IP; conditions: reference: wild type

Row | binding against the reference (UBC9; sites S87) | binding against the reference (SENP1; sites S87) | binding against the reference (UBC9; sites S325) | binding against the reference (SENP1; sites S325) | Substance
1 | weaker | stronger |  |  | ALKBH5 (from UniProt Q6P6C2) S87A
2 |  |  | weaker | stronger | ALKBH5 (from UniProt Q6P6C2) S325A
